Experiments:
Experiment in all cases: GST pull-down, 35S-Met protein vs GST fusion; - means no detectable binding (footnote a)
GST-CPS-6 = target: T1, GST-CPS-6 (C. elegans, UniProt Q95NM6 1-308)
T1 construct: GST at the N-terminus as in pGEX vectors; also called CPS-6 GST-fusion protein; not shown: glutathione S-transferase tag encoded by vector pGEX4T-2
T1 sequence (looked up): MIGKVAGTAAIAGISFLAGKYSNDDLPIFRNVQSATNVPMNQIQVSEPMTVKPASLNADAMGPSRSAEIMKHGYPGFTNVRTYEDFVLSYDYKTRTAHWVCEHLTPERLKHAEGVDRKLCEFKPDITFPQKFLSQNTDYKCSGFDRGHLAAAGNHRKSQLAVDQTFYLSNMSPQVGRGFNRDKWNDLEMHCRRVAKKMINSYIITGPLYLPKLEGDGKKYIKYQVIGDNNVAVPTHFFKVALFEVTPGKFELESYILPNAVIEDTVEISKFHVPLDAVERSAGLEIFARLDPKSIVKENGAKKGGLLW
Experimental: (§1) GST fusion protein pull-down assays were performed as described in J. Parrish, H. Metters, L. Chen, D. Xue, Proc. Natl. Acad. Sci. U.S.A. 97, 11916 (2000). Purified GST or GST-fusion proteins (5 μg each) immobilized on glutathione sepharose beads were incubated with ³⁵S-Methionine labeled proteins at 4° C. for 2 hours. The beads were washed extensively and the bound proteins were resolved on a 12% SDS-PAGE and visualized by autoradiography. [0103] cDNAs corresponding to the ORFs were cloned into the pPD129.36 vector via its Nhe I and Xho I sites or the Xho I site alone. Full-length cDNAs were subcloned into the pGEX4T-2 vector for generating GST fusion proteins and for further protein purification and into the pcDNA3.1 vector for in vitro transcription/translation experiments.
(§2) ^aInteractions were evaluated relative to background binding of ³⁵S-Methionine labeled Luciferase to GST-fusion proteins and ³⁵S-Methionine labeled proteins to GST. “−” indicates no detectable binding, “+” indicates an interaction consistently observed above background levels, and “++” indicates a strong interaction. ^bBecause ³⁵S-Methionine labeled CRN-1 binds GST tightly, it was not possible to evaluate interactions between ³⁵S-CRN-1 and various GST-fusion proteins. ND, not determined.

GST-NUC-1 = target: T2, GST-NUC-1 (C. elegans, UniProt Q17778 22-375)
T2 construct: also called NUC-1 GST-fusion protein; not shown: glutathione S-transferase tag encoded by vector pGEX4T-2
T2 sequence (looked up): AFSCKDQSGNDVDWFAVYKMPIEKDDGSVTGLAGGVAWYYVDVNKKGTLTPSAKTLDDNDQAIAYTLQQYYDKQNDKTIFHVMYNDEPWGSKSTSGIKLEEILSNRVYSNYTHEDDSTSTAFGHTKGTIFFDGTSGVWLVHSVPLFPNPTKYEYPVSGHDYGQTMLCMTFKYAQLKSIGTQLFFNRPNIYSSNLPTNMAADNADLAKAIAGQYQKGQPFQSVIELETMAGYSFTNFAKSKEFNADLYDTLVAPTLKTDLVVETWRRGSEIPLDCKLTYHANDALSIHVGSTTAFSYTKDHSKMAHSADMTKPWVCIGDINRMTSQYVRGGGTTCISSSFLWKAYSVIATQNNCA
Experimental: as §1, §2

GST-CRN-1 = target: T3, GST-CRN-1 (C. elegans, UniProt Q9N3T2 21-382)
T3 construct: also called CRN-1 GST-fusion protein; not shown: glutathione S-transferase tag encoded by vector pGEX4T-2
T3 sequence (looked up): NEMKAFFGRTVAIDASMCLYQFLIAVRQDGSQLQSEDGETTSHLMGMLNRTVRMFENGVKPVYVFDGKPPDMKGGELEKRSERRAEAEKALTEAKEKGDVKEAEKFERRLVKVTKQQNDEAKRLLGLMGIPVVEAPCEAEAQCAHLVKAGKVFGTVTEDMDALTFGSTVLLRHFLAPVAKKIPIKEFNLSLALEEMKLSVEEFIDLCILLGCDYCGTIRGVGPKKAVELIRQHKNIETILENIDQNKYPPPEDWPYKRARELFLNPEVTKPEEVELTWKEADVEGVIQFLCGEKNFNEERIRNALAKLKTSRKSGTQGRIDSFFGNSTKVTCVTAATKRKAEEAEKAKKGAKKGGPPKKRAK
Experimental: as §1, §2

GST-CRN-3 = target: T4, GST-CRN-3 (C. elegans, UniProt G5EBX6 1-876)
T4 construct: also called CRN-3 GST-fusion protein; not shown: glutathione S-transferase tag encoded by vector pGEX4T-2
T4 sequence: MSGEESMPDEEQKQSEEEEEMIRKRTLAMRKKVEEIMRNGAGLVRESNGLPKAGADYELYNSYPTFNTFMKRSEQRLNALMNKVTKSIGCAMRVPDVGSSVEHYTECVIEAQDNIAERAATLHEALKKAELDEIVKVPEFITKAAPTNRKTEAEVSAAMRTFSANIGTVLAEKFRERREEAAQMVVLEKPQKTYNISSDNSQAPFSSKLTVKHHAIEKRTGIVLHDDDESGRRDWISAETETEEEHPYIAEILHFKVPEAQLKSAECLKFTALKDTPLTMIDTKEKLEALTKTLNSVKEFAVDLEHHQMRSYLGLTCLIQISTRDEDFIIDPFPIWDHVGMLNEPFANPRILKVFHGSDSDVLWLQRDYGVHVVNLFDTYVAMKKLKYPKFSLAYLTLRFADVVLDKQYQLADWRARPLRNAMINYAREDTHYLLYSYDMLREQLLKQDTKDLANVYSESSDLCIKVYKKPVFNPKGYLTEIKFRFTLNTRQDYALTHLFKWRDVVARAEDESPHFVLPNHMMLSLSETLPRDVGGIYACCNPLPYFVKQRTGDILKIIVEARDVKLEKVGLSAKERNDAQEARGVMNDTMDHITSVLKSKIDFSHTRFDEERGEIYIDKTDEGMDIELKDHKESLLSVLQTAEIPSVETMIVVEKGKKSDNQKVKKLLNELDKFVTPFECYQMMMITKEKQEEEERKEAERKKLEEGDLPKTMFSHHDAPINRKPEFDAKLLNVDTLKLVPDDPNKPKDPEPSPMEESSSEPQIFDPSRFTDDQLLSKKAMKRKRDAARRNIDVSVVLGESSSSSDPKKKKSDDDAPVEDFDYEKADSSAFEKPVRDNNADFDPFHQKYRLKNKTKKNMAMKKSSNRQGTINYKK
Experimental: as §1, §2

GST-CRN-6 = target: T5, GST-CRN-6 (C. elegans, UniProt P08515 1-218 = GST; P34508 1-373)
T5 construct: Two crn-6 cDNAs (700 bp and 1.1 kb) were isolated; the longer one made the GST fusion; also called CRN-6 GST-fusion protein
Experimental: as §1, §2

Measured: binding result

T5 sequence (P08515 1-218, tags or fused parts left off): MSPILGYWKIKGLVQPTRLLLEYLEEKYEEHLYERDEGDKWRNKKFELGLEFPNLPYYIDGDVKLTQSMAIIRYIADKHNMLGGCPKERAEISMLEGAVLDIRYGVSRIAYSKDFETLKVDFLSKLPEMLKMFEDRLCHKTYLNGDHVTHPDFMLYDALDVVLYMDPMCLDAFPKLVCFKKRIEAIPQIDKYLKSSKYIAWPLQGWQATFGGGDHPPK

B1: ^35S-Methionine labeled CRN-2 (enzyme, C. elegans)
chain: MALYELVDIGANLGHPSYQKDLNDVLDRAKQAGLSKIMVTGTSEKISHECADLVEKYPGFLYFTAGVHPHDAKDWNDGTLEALKKLQENPSCVAVGECGLDFNRNFSPQDVQKEVFAKQVDMAVKLQKPLFIHEREAHEDMVKILTAAGPSLPPAVIHCFTGTVVEAKKYLEMGFYIGLTGFLWKDRSDNGVQAGLRSGEIPIEKLVLETDAPYMYPKINDKKIPKEIKSLITPETEALHNFSSFNRNEPCSLAAVCELVAAFAGRDPKEVAKITTENAKKVYKLE
no binding: GST-CPS-6 | GST-NUC-1 | GST-CRN-1 | GST-CRN-3 | GST-CRN-6
